In PMC11194110, “Single-molecule imaging reveals a direct role of CTCF’s zinc fingers in SA interaction and cluster-dependent RNA recruitment” (Nucleic Acids Research, 2024):
Blank lines part the entries; values can stand above or below the molecule they belong to.

Legend:
[1] = target: CTCF WT (human CCCTC-binding factor, full-length) (human) (UniProt P49711); assay: single-molecule photobleaching step counting on DNA curtains; labeled CTCF on λ-DNA at 50 mM NaCl without prior removal of unspecifically bound CTCF, 25 ng/μl 100 bp Cy3-RNA added; bleaching steps counted at positions of captured RNA; both lasers at 140 mW
[2] = target: CTCF ΔNC (truncation mutant missing both CTCF termini, containing all 11 ZFs) (human); assay: as above
[3] = test system: CTCF WT (human); assay: single-molecule DNA curtains (TIRF); details: 300 mM NaCl wash; DNA curtains: CTCF 10 nM (ZF9-CT 50 nM, ZF4-7 200 nM) or SA 100 nM; load at 50 mM NaCl, wash at 300 mM NaCl; buffer, pH and temperature not given in material
[4] = test system: CTCF WT;SA1 (human;human?); assay: single-molecule DNA curtains (TIRF); details: preincubated 10 nM CTCF, 100 nM SA1; 300 mM NaCl wash; DNA curtains: CTCF 10 nM (ZF9-CT 50 nM, ZF4-7 200 nM) or SA 100 nM; load at 50 mM NaCl, wash at 300 mM NaCl; buffer, pH and temperature not given in material
[5] = test system: CTCF WT;SA2 (human;human?); assay: single-molecule DNA curtains (TIRF); details: preincubated 10 nM CTCF, 100 nM SA2; 300 mM NaCl wash; DNA curtains: CTCF 10 nM (ZF9-CT 50 nM, ZF4-7 200 nM) or SA 100 nM; load at 50 mM NaCl, wash at 300 mM NaCl; buffer, pH and temperature not given in material
[6] = test system: CTCF WT (human); assay: single-molecule DNA curtains lifetime; details: DNA curtains: CTCF 10 nM (ZF9-CT 50 nM, ZF4-7 200 nM) or SA 100 nM, load at 50 mM NaCl, wash at 300 mM NaCl, buffer, pH and temperature not given in material; for binding signal (min (lifetime)): 300 mM NaCl wash, photobleaching corrected
[7] = test system: T1, CTCF ZF4-7 del1-350;del461-727 (human); assay: single-molecule DNA curtains lifetime; details: not enriched on CBSs; DNA curtains: CTCF 10 nM (ZF9-CT 50 nM, ZF4-7 200 nM) or SA 100 nM; load at 50 mM NaCl, wash at 300 mM NaCl; buffer, pH and temperature not given in material
T1 sequence: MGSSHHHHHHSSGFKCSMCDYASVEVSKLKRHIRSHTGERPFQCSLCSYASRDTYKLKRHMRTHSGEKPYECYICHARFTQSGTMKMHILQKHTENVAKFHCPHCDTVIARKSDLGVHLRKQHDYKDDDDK

[8] = test system: T2, CTCF ZF9-CT (human); assay: single-molecule DNA curtains lifetime; details: not enriched on CBSs (negative enrichment); prefers AT-rich DNA; DNA curtains: CTCF 10 nM (ZF9-CT 50 nM, ZF4-7 200 nM) or SA 100 nM; load at 50 mM NaCl, wash at 300 mM NaCl; buffer, pH and temperature not given in material
T2 sequence: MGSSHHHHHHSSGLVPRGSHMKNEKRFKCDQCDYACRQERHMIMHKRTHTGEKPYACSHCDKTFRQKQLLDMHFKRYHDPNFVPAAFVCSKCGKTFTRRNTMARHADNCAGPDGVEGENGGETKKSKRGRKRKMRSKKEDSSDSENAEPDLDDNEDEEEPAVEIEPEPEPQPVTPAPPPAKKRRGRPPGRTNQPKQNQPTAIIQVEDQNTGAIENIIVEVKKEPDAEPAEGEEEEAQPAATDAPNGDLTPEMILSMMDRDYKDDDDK

[9] = test system: CTCF ΔRBR (ΔRBR+ΔZF1,10,11) (human); assay: single-molecule DNA curtains lifetime; details: 300 mM NaCl wash; CBS enrichment similar to WT; DNA curtains: CTCF 10 nM (ZF9-CT 50 nM, ZF4-7 200 nM) or SA 100 nM; load at 50 mM NaCl, wash at 300 mM NaCl; buffer, pH and temperature not given in material
[10] = target: T3, CTCF WT (human CCCTC-binding factor, full-length) (human, UniProt P49711 1-727, fluorescent dye (AF568, Atto 643 or Alexa Fluor 660) on the Halo-tag through a chloroalkane linker; unlabeled in the SA transcription experiments); assay: single-molecule DNA curtains (TIRF microscopy), combined loading; 100 or 400 nM SA-LD655 preincubated with 10 nM CTCF in CTCF 100 buffer (40 mM Tris pH 7.5, 100 mM NaCl, 1 mM MgCl2, 1 mg/ml BSA, 1 mM DTT) 5 min at RT; 30 s on λ-DNA with 4× CBSs in 50 mM NaCl, then 3 min (lifetimes: up to 15 min) in 300 mM NaCl; SA read at CBS-bound CTCF (enrichment, lifetime); details: both partners purified
T3 construct: 11 zinc fingers and two unstructured termini; also called AF-568-CTCF-WT; AF568-CTCF; source: High Five (Hi5) insect cells, purified (Ni-NTA, heparin, Superose 6); not shown: Halo, N-terminal, kept
T3 sequence (looked up): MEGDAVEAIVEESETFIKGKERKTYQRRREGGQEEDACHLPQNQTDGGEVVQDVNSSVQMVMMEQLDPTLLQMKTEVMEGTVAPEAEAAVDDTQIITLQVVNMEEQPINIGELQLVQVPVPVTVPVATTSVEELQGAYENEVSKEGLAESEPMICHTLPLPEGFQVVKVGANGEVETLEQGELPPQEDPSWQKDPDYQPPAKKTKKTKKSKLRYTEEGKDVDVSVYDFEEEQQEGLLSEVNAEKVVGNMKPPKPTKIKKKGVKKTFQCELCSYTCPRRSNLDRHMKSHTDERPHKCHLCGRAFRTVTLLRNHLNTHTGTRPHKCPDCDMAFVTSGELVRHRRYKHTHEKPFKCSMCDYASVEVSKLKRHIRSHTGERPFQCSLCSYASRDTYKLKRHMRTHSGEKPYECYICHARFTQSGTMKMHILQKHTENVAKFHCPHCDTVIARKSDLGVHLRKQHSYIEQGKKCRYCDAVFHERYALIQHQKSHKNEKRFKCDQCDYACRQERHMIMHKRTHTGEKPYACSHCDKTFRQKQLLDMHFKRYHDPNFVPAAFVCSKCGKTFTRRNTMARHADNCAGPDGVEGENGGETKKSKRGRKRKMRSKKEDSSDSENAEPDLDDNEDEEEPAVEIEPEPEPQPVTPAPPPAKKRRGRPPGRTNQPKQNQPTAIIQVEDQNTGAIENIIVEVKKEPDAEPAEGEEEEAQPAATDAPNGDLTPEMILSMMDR

Molecule: CTCF WT (human CCCTC-binding factor, full-length) (from UniProt P49711 1-727) (natural protein)
photobleaching steps in CTCF-RNA clusters [1]: 8.8 steps | stoichiometry N (CTCF molecules) [1]: 17

Molecule: 2xT7-4xCBSs λ-DNA
binding signal (fold enrichment on CBS) [3]: 16 | binding signal (fold SA1 enrichment on CBS) [4]: 10 | binding signal (fold SA2 enrichment on CBS) [5]: 8 | binding signal (min (lifetime)) [6]: 50 | binding signal (fold reduced lifetime vs WT) [7]: 90 | binding signal (fold reduced lifetime vs WT) [8]: 25 | binding signal (fold reduced lifetime vs WT) [9]: 2.5

Molecule: λ-DNA (non-CBS)
binding signal (fold lower lifetime than on CBS) ([6]; coats DNA at 50 mM NaCl, mostly washed off at 300 mM): > 40

Molecule: 1xT7-1xCBS λ-DNA
binding signal (fold enrichment on CBS) [3]: 7 | binding signal (min (lifetime)) [6]: 50

The remaining lines, values ahead:

photobleaching steps in clusters on DNA (bleaching steps) [2]: 9
Molecule: CTCF ΔNC (truncation mutant missing both CTCF termini, containing all 11 ZFs) (domain or fragment)

fold enrichment on the CBSs with CTCF [10]: 8 fold
B1: Cohesin subunit SA2 (natural protein, UniProt Q8N3U4 1-1231, looked up)
chain: MIAAPEIPTDFNLLQESETHFSSDTDFEDIEGKNQKQGKGKTCKKGKKGPAEKGKGGNGGGKPPSGPNRMNGHHQQNGVENMMLFEVVKMGKSAMQSVVDDWIESYKHDRDIALLDLINFFIQCSGCKGVVTAEMFRHMQNSEIIRKMTEEFDEDSGDYPLTMAGPQWKKFKSSFCEFIGVLVRQCQYSIIYDEYMMDTVISLLTGLSDSQVRAFRHTSTLAAMKLMTALVNVALNLSINMDNTQRQYEAERNKMIGKRANERLELLLQKRKELQENQDEIENMMNAIFKGVFVHRYRDAIAEIRAICIEEIGIWMKMYSDAFLNDSYLKYVGWTMHDKQGEVRLKCLTALQGLYYNKELNSKLELFTSRFKDRIVSMTLDKEYDVAVQAIKLLTLVLQSSEEVLTAEDCENVYHLVYSAHRPVAVAAGEFLYKKLFSRRDPEEDGMMKRRGRQGPNANLVKTLVFFFLESELHEHAAYLVDSMWDCATELLKDWECMNSLLLEEPLSGEEALTDRQESALIEIMLCTIRQAAECHPPVGRGTGKRVLTAKEKKTQLDDRTKITELFAVALPQLLAKYSVDAEKVTNLLQLPQYFDLEIYTTGRLEKHLDALLRQIRNIVEKHTDTDVLEACSKTYHALCNEEFTIFNRVDISRSQLIDELADKFNRLLEDFLQEGEEPDEDDAYQVLSTLKRITAFHNAHDLSKWDLFACNYKLLKTGIENGDMPEQIVIHALQCTHYVILWQLAKITESSSTKEDLLRLKKQMRVFCQICQHYLTNVNTTVKEQAFTILCDILMIFSHQIMSGGRDMLEPLVYTPDSSLQSELLSFILDHVFIEQDDDNNSADGQQEDEASKIEALHKRRNLLAAFCKLIVYTVVEMNTAADIFKQYMKYYNDYGDIIKETMSKTRQIDKIQCAKTLILSLQQLFNEMIQENGYNFDRSSSTFSGIKELARRFALTFGLDQLKTREAIAMLHKDGIEFAFKEPNPQGESHPPLNLAFLDILSEFSSKLLRQDKRTVYVYLEKFMTFQMSLRREDVWLPLMSYRNSLLAGGDDDTMSVISGISSRGSTVRSKKSKPSTGKRKVVEGMQLSLTEESSSSDSMWLSREQTLHTPVMMQTPQLTSTIMREPKRLRPEDSFMSVYPMQTEHHQTPLDYNRRGTSLMEDDEEPIVEDVMMSSEGRIEDLNEGMDFDTMDIDLPPSKNRRERTELKPDFFDPASIMDESVLGVSMF
modifications: LD655-CoA dye on the ybbR-tag (Sfp labeling)
notes: cohesin subunit SA2; also called SA-LD655; source: High Five (Hi5) insect cells, purified (Ni-NTA, heparin, Superose 6); not shown: ybbR, C-terminal, kept

fold enrichment on the CBSs with CTCF [10]: 10 fold
B2: Cohesin subunit SA1 (natural protein, UniProt Q8WVM7 1-1258, looked up)
chain: MITSELPVLQDSTNETTAHSDAGSELEETEVKGKRKRGRPGRPPSTNKKPRKSPGEKSRIEAGIRGAGRGRANGHPQQNGEGEPVTLFEVVKLGKSAMQSVVDDWIESYKQDRDIALLDLINFFIQCSGCRGTVRIEMFRNMQNAEIIRKMTEEFDEDSGDYPLTMPGPQWKKFRSNFCEFIGVLIRQCQYSIIYDEYMMDTVISLLTGLSDSQVRAFRHTSTLAAMKLMTALVNVALNLSIHQDNTQRQYEAERNKMIGKRANERLELLLQKRKELQENQDEIENMMNSIFKGIFVHRYRDAIAEIRAICIEEIGVWMKMYSDAFLNDSYLKYVGWTLHDRQGEVRLKCLKALQSLYTNRELFPKLELFTNRFKDRIVSMTLDKEYDVAVEAIRLVTLILHGSEEALSNEDCENVYHLVYSAHRPVAVAAGEFLHKKLFSRHDPQAEEALAKRRGRNSPNGNLIRMLVLFFLESELHEHAAYLVDSLWESSQELLKDWECMTELLLEEPVQGEEAMSDRQESALIELMVCTIRQAAEAHPPVGRGTGKRVLTAKERKTQIDDRNKLTEHFIITLPMLLSKYSADAEKVANLLQIPQYFDLEIYSTGRMEKHLDALLKQIKFVVEKHVESDVLEACSKTYSILCSEEYTIQNRVDIARSQLIDEFVDRFNHSVEDLLQEGEEADDDDIYNVLSTLKRLTSFHNAHDLTKWDLFGNCYRLLKTGIEHGAMPEQIVVQALQCSHYSILWQLVKITDGSPSKEDLLVLRKTVKSFLAVCQQCLSNVNTPVKEQAFMLLCDLLMIFSHQLMTGGREGLQPLVFNPDTGLQSELLSFVMDHVFIDQDEENQSMEGDEEDEANKIEALHKRRNLLAAFSKLIIYDIVDMHAAADIFKHYMKYYNDYGDIIKETLSKTRQIDKIQCAKTLILSLQQLFNELVQEQGPNLDRTSAHVSGIKELARRFALTFGLDQIKTREAVATLHKDGIEFAFKYQNQKGQEYPPPNLAFLEVLSEFSSKLLRQDKKTVHSYLEKFLTEQMMERREDVWLPLISYRNSLVTGGEDDRMSVNSGSSSSKTSSVRNKKGRPPLHKKRVEDESLDNTWLNRTDTMIQTPGPLPAPQLTSTVLRENSRPMGDQIQEPESEHGSEPDFLHNPQMQISWLGQPKLEDLNRKDRTGMNYMKVRTGVRHAVRGLMEEDAEPIFEDVMMSSRSQLEDMNEEFEDTMVIDLPPSRNRRERAELRPDFFDSAAIIEDDSGFGMPMF
modifications: LD655-CoA dye on the ybbR-tag (Sfp labeling)
notes: cohesin subunit SA1; also called SA-LD655; source: High Five (Hi5) insect cells, purified (Ni-NTA, heparin, Superose 6); not shown: ybbR, C-terminal, kept
